This passage reports Km, kcat and kcat/Km results from publication PMC10991500, “A multi-enzyme cascade for efficient production of D-p-hydroxyphenylglycine from L-tyrosine” (Bioresources and Bioprocessing, 2021).

Residue numbers refer to the chain shown, from its start. Numbers in names are those of the source.

The subject of one data set is T1, PmL-AAD.
T1 construct: recombinant in E. coli BL21(DE3), Tween 80 solubilised, HisTrap purified
As to the kind of experiment: initial rates by HPLC, Michaelis-Menten fit. It is filed as biochemical, Proteus mirabilis. As to conditions: 50 mM Tris-HCl pH 8.0, 30 °C; substrate 1-20 mM. The source says: initial rates by HPLC, Michaelis-Menten fit on PmL-AAD

Substrate in data set [1]: O=C(O)C(=O)c1ccc(O)cc1
As to the kind of experiment: initial rates of reductive amination, HPLC, Michaelis-Menten fit. It is filed as biochemical, Corynebacterium glutamicum. Particulars: 0.5 mM NADPH, 10 mM NH4Cl, 50 mM Tris-HCl pH 8.0, 30 °C, HPGA 1-20 mM. The source says: initial rates of reductive amination, HPLC, Michaelis-Menten fit on CgDAPDH^BC621

Substrate in data set [2]: O=C(O)[C@@H](O)c1ccc(O)cc1
Description: initial rates by HPLC, Michaelis-Menten fit. As to conditions: 0.5 mM NADP+, 50 mM Tris-HCl pH 8.0, 30 °C, substrate 1-20 mM. It is filed as biochemical, Pseudomonas aeruginosa. The source says: initial rates by HPLC, Michaelis-Menten fit on PaMDH

On to `N[C@@H](Cc1ccc(O)cc1)C(=O)O` [L-tyrosine], for which the Km in the data set on PmL-AAD came to 2.94 ± 1.04 mM.

B1: CgDAPDH^BC621 (Corynebacterium glutamicum ATCC 13032; D154G/H244N/Q150L/R195M/T169I) (protein)
chain: MTNIRVAIVGYGNLGRSVEKLIAKQPDMDLVGIFSRRATLDTKTPVFDVADVDKHADDVDVLFLCMGSATDIPEQAPKFAQFACTVDTYDNHRDIPRHRQVMNEAATAAGNVALVSTGWDPGMFSINRVYAAAVLAEHQQHTFWGPGLSLGHSGALRRIPGVQKAVQYILPSEDALEKARRGEAGDLTGKQTHKMQCFVVADAADHERIENDIRTMPDYFVGYEVEVNFIDEATFDSEHTGMPNGGHVITTGDTGGFNHTVEYILKLDRNPDFTASSQIAFGRAAHRMKQQGQSGAFTVLEVAPYLLSPENLDDLIARDV
notes: five-fold mutant BC621 in pET28a, recombinant in E. coli BL21(DE3), HisTrap purified
Turning to B1, in data set [1], the Km is on record as 20.37 ± 0.19 mM, the kcat stood at 0.00317 ± 0.00617 s⁻¹ and the kcat/Km worked out at 0.15 M⁻¹ s⁻¹.

B2: CgDAPDH^BC621 (Corynebacterium glutamicum ATCC 13032; D120S/D154G/H244N/Q150L/R195M/T169P) (protein)
chain: B1 chain with D120S, I169P
notes: as for B1
Take B2: in data set [1], the Michaelis-Menten constant (Km) came to 7.83 ± 0.03 mM, the kcat is 0.0243 ± 0.0117 s⁻¹ and the kcat/Km was determined as 3.17 M⁻¹ s⁻¹.

B3: CgDAPDH^BC621 (Corynebacterium glutamicum ATCC 13032; D154G/H244N/Q150L/R195M/T169P/W144S) (protein)
chain: B1 chain with W144S, I169P
notes: as for B1
Take B3: in data set [1], the Km worked out at 8.07 ± 0.68 mM, the kcat amounted to 0.0225 ± 0.0232 s⁻¹ and the specificity constant (kcat/Km) worked out at 2.83 M⁻¹ s⁻¹.

B4: CgDAPDH^BC621 (Corynebacterium glutamicum ATCC 13032; D120S/D154G/H244N/Q150L/R195M/T169P/W144S) (protein)
chain: B1 chain with D120S, W144S, I169P
notes: as for B1
For B4, in data set [1], the Km is given as 2.48 ± 0.28 mM, the kcat turned out to be 0.0448 ± 0.005 s⁻¹ and the kcat/Km stood at 18 M⁻¹ s⁻¹.

B5: CgDAPDH^BC621 (Corynebacterium glutamicum ATCC 13032; D154G/H244N/Q150L/R195M/T169P) (protein)
chain: B1 chain with I169P
notes: as for B1
Take B5: in data set [1], the Km was found to be 8.17 ± 0.89 mM, the kcat was 0.0247 ± 0.00417 s⁻¹ and the kcat/Km was 3 M⁻¹ s⁻¹.

B6: PaMDH (Pseudomonas aeruginosa) (protein)
chain: MSQNLFNVEDYRKLAQKRLPKMVYDYLEGGAEDEYGVKHNRDVFQQWRFKPKRLVDVSRRSLQAEVLGKRQSMPLLIGPTGLNGALWPKGDLALAQAATKAGIPFVLSTASNMSIEDLARQCDGDLWFQLYVIHREIAQGMVLKALHSGYTTLVLTTDVAVNGYRERDLHNRFKMPMSYTPKVMLDGCLHPRWSLDLVRHGMPQLANFVSSQTSSLEMQAALMSRQMDASFNWEALRWLRDLWPHKLLVKGLLSAEDADHCIAEGADGVILSNHGGRQLDCAVSPMEVLAQSVAKTGKPVLIDSGFRRGSDIVKALALGAEAVLLGRATLYGLAARGETGVDEVLTLLKADIDRTLAQIGCPDITSLSPDYLQSEGVTSTAPVDHLIGKGTHA
notes: recombinant in E. coli BL21(DE3), HisTrap purified
Regarding B6, in data set [2], the Km is listed as 0.89 ± 0.91 mM, the kcat turned out to be 0.123 ± 0.0122 s⁻¹ and the kcat/Km came to 179 ± 3.67 M⁻¹ s⁻¹.

Broadly, the Km is the substrate concentration at which the rate is half of its maximum. The term kcat denotes the number of substrate molecules converted per active site and unit of time at saturation. A word on the kcat/Km: it is the second-order rate constant that governs catalysis at low substrate concentration.
